We go through one substance from publication doi:10.1101/2021.09.16.459956.

The target of the assay is Paracoccidioides americana (Pb03) Cbp1 (Paracoccidioides americana (Pb03)). Briefly: crystal structure.

In turn, “Paracoccidioides americana (Pb03) Cbp1 (natural protein)” came in with a stoichiometry N of 2.
